We go through two molecules from paper PMC8833744, “Strategic Decoy Peptides Interfere with MSI1/AGO2 Interaction to Elicit Tumor Suppression Effects” (Cancers, 2022).

The assay addresses T1, recombinant His-tagged AGO2 (UniProt Q9UKV8 1-859).
T1 construct: AGO2 (argonaute 2); Detected on the array by an HRP-conjugated 6xHis antibody; amine-coupled to a CM5 chip in the SPR; also called His-AGO2; AGO2 recombinant protein; source: recombinant, purified
Put plainly: SPR; Biacore T200; His-AGO2 immobilised on a CM5 chip by amine coupling (~7000 RU); peptides 20 to 1280 nM in HBS-P (10 mM HEPES, 150 mM NaCl, 0.005% T20, pH 7.4), 30 µL/min; Langmuir 1:1 model. The settings on record: both partners purified. In general terms: SPR reads the build-up and loss of mass on a sensor chip optically.

T1 sequence (Q9UKV8 whole entry): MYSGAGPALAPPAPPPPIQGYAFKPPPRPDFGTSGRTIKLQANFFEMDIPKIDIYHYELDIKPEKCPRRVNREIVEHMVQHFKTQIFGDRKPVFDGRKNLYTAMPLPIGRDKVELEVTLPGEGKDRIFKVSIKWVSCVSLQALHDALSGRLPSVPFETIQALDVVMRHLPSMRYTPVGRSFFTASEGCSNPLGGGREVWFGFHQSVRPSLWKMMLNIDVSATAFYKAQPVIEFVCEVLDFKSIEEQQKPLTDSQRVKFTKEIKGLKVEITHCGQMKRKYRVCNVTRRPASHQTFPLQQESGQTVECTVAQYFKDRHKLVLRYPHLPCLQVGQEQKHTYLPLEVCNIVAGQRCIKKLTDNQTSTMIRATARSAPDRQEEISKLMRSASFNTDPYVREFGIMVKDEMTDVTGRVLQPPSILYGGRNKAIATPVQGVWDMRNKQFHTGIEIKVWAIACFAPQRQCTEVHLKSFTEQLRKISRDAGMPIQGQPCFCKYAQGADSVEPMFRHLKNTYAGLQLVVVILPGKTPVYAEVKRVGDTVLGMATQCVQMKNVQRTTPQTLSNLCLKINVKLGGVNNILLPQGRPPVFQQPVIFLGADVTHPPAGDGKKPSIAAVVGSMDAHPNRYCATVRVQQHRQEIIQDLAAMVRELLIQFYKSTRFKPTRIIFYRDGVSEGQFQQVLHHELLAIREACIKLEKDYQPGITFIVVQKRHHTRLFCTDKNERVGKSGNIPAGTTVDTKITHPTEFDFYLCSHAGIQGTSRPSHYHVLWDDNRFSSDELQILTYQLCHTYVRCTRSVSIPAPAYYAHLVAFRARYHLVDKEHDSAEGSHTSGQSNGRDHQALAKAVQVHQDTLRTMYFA

Take HSLGGPLIATAFTNG [Pep#26 (decoy peptide as used in the SPR)]: the dissociation constant (Kd) (in general, the equilibrium constant for the complex coming apart) worked out at 674 nM. Under YQFPEFRVERTPLPS [Pep#11 (decoy peptide as used in the SPR)] stands 515 nM.
